From patent US20230220098A1, “THERAPEUTIC DRUG FOR POLYCYTHEMIA” (PERSEUS PROTEOMICS INC., priority 2019, published 2023)

How the values were obtained:
hamster TfR = hamster TfR (Cricetulus griseus, UniProt Q07891); assay: Cross-reactivity of TfR436 antibody with hamster TfR; assay type: binding
[1] = system: HYDREA (registered trademark)-administered patient-derived hematopoietic stem cells; assay: Erythroblast colony assay, HYDREA-administered patients; assay type: cell-based, human
Protocol: (§1) The peripheral blood of a PV patient, which had been obtained by phlebotomy, was dispensed into three 50-mL centrifuge tubes in an amount of 20 mL each, and an equal amount of PBS (Gibco) was then added to each tube, followed by mixing. Thereafter, 15 mL of LymphoSep, Lymphocyte Separation Media (MP Biomedicals™) was dispensed into […] novel 50-mL centrifuge tubes, and the peripheral blood diluted with PBS was then slowly added thereto in an amount of 30 mL each, and the obtained mixture was then centrifuged at 1,500 rpm at room temperature for 30 minutes. After completion of the centrifugation, the plasma as a supernatant was removed, and a PBMC layer was collected by transfer pipetting. The collected PBMC layer was suspended in 20 mL of PBS+2% FBS (Gibco). The thus obtained suspension was further centrifuged at 1350 rpm at room temperature for 10 minutes, a supernatant was then removed, and the residue was then suspended in 1 to 5 mL of IMDM (Nacalai Tesque)+2% FBS. Using 0.2% Trypan Blue, the number of cells was counted, and the cells were adjusted to 2×10^6 cells/mL by addition of IMDM+2% FBS.
(§2) TfR436 and a human IgG1 antibody used as a negative control were each diluted with IMDM+2% FBS to an antibody concentration of […]. MethoCult™ H4534 Classic WithoutEPO (STEMCELL TECHNOLOGIES) was dispensed into seven 14-mL round bottle tubes in an amount of 3 mL each, and 300 jut of the above-prepared PBMC was then added thereto. Thereafter, an antibody-diluted solution or 3.3 μL of IMDM+2% FBS (control) was further added thereto, followed by full mixing. Thereafter, the reaction mixture was seeded on two 35-mm culture dishes in an amount of 1 mL each. This mixture was cultured at 37° C. in a 5% CO2 incubator for 14 days. After completion of the culture, the 35-mm culture dishes were observed under a microscope, and the number of the formed BFU-E or CFU-E colonies was then counted. The colony formation percentage with respect to the number of colonies obtained by a culture without addition of antibodies was then calculated.
Hematopoietic stem cells derived from patients administered with HYDREA (registered trademark) were used as PV patient-derived hematopoietic stem cells, and the activity of TfR436 to inhibit erythroblast colony formation was examined by the same method as that of Example 3. Besides, HYDREA (registered trademark) was administered as hydroxycarbamide (also referred to as “hydroxyurea”) to the patients via oral administration at a daily dose of 500 mg to 2000 mg once or divided over twice or three times. As a result, erythroblast colony formation was inhibited by addition of 100 ng/mL or more TfR436 (Table 2).

[2] = system: PV patient-derived hematopoietic stem cells; assay: EPO-independent erythroblast (BFU-E/CFU-E) colony assay; assay type: cell-based, human
Protocol: PV patient-derived hematopoietic stem cells are characterized in that BFU-E or CFU-E is formed in the cells even in the absence of erythropoietin (EPO). The activity of TfR436 to inhibit the formation of these colonies was examined.
as §1, §2

mouse TfR = mouse TfR (Mus musculus, UniProt Q62351); assay: Cross-reactivity of TfR436 antibody with mouse TfR; assay type: binding
mouse TfR, sequence (Q62351 whole entry): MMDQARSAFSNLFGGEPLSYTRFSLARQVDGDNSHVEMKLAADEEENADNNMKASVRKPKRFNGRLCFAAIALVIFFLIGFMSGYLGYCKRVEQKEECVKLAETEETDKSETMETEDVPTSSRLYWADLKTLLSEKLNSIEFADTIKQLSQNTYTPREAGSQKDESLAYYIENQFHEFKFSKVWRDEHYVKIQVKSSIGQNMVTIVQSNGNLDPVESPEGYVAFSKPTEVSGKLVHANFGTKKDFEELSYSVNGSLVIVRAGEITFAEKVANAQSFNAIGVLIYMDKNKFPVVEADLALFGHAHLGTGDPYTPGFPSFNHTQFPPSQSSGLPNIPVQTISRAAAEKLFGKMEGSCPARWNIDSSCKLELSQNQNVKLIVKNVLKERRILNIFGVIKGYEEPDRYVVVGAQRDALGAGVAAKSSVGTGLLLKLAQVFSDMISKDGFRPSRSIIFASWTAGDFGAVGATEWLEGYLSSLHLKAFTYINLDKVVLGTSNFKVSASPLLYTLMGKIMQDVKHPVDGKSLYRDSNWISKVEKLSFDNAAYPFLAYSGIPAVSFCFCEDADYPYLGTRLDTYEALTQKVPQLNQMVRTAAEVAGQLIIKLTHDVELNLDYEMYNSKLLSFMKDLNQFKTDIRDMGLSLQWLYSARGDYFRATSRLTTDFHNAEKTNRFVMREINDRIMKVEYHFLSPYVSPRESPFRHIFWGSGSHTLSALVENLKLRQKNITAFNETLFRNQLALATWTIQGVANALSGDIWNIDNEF

erythroblast cells = assay: Growth of normal erythroblast cells derived from CD34-positive cells; assay type: cell-based; settings: FIG. 4
Protocol: Frozen CD34-positive cells (POIETICS) were thawed at 37° C., and were then suspended in IMDM (GIBCO)+30% FBS (Sigma-Aldrich) and 100 U/ml DNase (QIAGEN), and thereafter, the cells were […] according to the instructions of the manufacturer. Thereafter, the cells were adjusted to 5×10^4 cells/ml with a culture medium prepared by adding 2-ME (50 μmol/L) (GIBCO), hIL-3 (100 U/ml) (Milteny biotec), hEPO (4 U/ml) (Roche), and hSCF (50 ng/ml) (Peprotech) to an SF-03 medium (EIDIA Co., Ltd.). The resulting cells were dispensed into a 24-well plate in an amount of 1 ml/well, and were then cultured at 37° C. in a 5% CO2 incubator. Seven days later, the cells were seeded into a 96-well plate, and the antibody was then added thereto in an amount of 0.15 ng/mL to 10 μg/mL, followed by culturing the mixture. A well without addition of the antibody was used as a control. Ninety six hours later, each well was fully stirred by pipetting, and 150 μl of the cell lysate was transferred into a V-bottom plate. Then, 20 μI of the transferred cell lysate was absorbed by FACS Calibur, and the number of cells was then counted. The value obtained by multiplying the obtained cell number by 10 was set to be the number of cells per well, and the growth percentage of the cells at each concentration of the antibody was then calculated, while the mean value of the control was set to be 100%.

hamster TfR, sequence (Q07891 whole entry): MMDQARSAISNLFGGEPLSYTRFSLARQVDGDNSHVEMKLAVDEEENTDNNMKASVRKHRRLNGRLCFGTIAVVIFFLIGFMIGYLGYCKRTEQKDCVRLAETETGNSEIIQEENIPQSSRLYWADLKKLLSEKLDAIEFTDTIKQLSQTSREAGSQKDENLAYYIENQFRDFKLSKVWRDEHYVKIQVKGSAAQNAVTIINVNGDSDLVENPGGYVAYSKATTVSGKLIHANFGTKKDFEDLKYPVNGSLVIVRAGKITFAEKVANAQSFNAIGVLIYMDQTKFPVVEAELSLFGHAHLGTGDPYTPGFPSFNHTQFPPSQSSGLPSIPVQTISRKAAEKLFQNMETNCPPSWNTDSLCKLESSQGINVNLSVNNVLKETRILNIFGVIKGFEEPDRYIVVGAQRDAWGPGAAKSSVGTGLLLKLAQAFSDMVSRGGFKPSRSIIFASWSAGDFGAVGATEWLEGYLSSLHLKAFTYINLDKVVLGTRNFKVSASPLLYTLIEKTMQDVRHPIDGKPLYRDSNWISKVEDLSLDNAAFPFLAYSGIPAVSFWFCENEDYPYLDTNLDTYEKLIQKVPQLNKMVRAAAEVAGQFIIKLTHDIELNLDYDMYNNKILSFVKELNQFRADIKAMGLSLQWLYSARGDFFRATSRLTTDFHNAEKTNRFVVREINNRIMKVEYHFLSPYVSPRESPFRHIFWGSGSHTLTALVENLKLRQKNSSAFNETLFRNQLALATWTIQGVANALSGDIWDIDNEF

B1: TfR436: anti-human transferrin receptor antibody, VH SEQ ID NO: 7 and VL SEQ ID NO: 8, described in WO2014/073641; called PPMX-T003 in Tables 3 and 4 (antibody, listed as Homo sapiens, V domains shown)
VH: DVQLVQSGGGVVQPGRSLRLSCAASGFPFKSYGMHWVRQAPGKGLEWVAVISYDGSNKYYADSVKGRFTISRDNSKNTLYLQMNSLRGEDTAVYYCARDSNFWSGYYSPVDVWGQGTTVTVSS
VL: NFMLTQPHSVSESPGKTVTISCTRSSGSIASNSVQWYQQRPGSAPITVIYEDTQRPSGVPDRFSGSIDSSSNSASLTISGLQTEDEADYYCQSYDSAYHWVFGGGTKLAVL
Hamster TfR
  cross-reactivity with hamster TfR: exhibited cross-reactivity
[1]; 100 ng/mL or more
  erythroblast colony formation: inhibited
[1]; HYDREA-administered pt No. 1, 10 ng/mL
  colony formation percentage with respect to culture without addition of antibodies: 109.1%
[1]; HYDREA-administered pt No. 1, 100 ng/mL
  colony formation percentage with respect to culture without addition of antibodies: 0.0%
[1]; HYDREA-administered pt No. 1, 1000 ng/mL
  colony formation percentage with respect to culture without addition of antibodies: 0.0%
[1]; HYDREA-administered pt No. 23, 10 ng/mL
  colony formation percentage with respect to culture without addition of antibodies: 100.0%
[1]; HYDREA-administered pt No. 23, 100 ng/mL
  colony formation percentage with respect to culture without addition of antibodies: 0.0%
[1]; HYDREA-administered pt No. 23, 1000 ng/mL
  colony formation percentage with respect to culture without addition of antibodies: 0.0%
[1]; HYDREA-administered pt No. 24, 10 ng/mL
  colony formation percentage with respect to culture without addition of antibodies: 68.6%
[1]; HYDREA-administered pt No. 24, 100 ng/mL
  colony formation percentage with respect to culture without addition of antibodies: 0.0%
[1]; HYDREA-administered pt No. 24, 1000 ng/mL
  colony formation percentage with respect to culture without addition of antibodies: 0.0%
[1]; HYDREA-administered pt No. 26, 10 ng/mL
  colony formation percentage with respect to culture without addition of antibodies: 148.9%
[1]; HYDREA-administered pt No. 26, 100 ng/mL
  colony formation percentage with respect to culture without addition of antibodies: 10.6%
[1]; HYDREA-administered pt No. 26, 1000 ng/mL
  colony formation percentage with respect to culture without addition of antibodies: 0.0%
[1]; HYDREA-administered pt No. 27, 10 ng/mL
  colony formation percentage with respect to culture without addition of antibodies: 152.4%
[1]; HYDREA-administered pt No. 27, 100 ng/mL
  colony formation percentage with respect to culture without addition of antibodies: 0.0%
[1]; HYDREA-administered pt No. 27, 1000 ng/mL
  colony formation percentage with respect to culture without addition of antibodies: 0.0%
[1]; HYDREA-administered pt No. 28, 10 ng/mL
  colony formation percentage with respect to culture without addition of antibodies: 112.5%
[1]; HYDREA-administered pt No. 28, 100 ng/mL
  colony formation percentage with respect to culture without addition of antibodies: 0.0%
[1]; HYDREA-administered pt No. 28, 1000 ng/mL
  colony formation percentage with respect to culture without addition of antibodies: 0.0%
[2]; 100 ng/mL or more, 14 days, without EPO
  formation of erythroblast colonies: almost completely inhibited
[2]; pt No. 1, 10 ng/mL
  colony formation percentage with respect to culture without addition of antibodies: 87.1%
[2]; pt No. 1, 100 ng/mL
  colony formation percentage with respect to culture without addition of antibodies: 0.0%
[2]; pt No. 1, 1000 ng/mL
  colony formation percentage with respect to culture without addition of antibodies: 0.0%
[2]; pt No. 2, 10 ng/mL
  colony formation percentage with respect to culture without addition of antibodies: 149.0%
[2]; pt No. 2, 100 ng/mL
  colony formation percentage with respect to culture without addition of antibodies: 2.1%
[2]; pt No. 2, 1000 ng/mL
  colony formation percentage with respect to culture without addition of antibodies: 0.0%
[2]; pt No. 3, 10 ng/mL
  colony formation percentage with respect to culture without addition of antibodies: 91.7%
[2]; pt No. 3, 100 ng/mL
  colony formation percentage with respect to culture without addition of antibodies: 0.0%
[2]; pt No. 3, 1000 ng/mL
  colony formation percentage with respect to culture without addition of antibodies: 0.0%
[2]; pt No. 7, 10 ng/mL
  colony formation percentage with respect to culture without addition of antibodies: 63.6%
[2]; pt No. 7, 100 ng/mL
  colony formation percentage with respect to culture without addition of antibodies: 0.0%
[2]; pt No. 7, 1000 ng/mL
  colony formation percentage with respect to culture without addition of antibodies: 0.0%
[2]; pt No. 9, 10 ng/mL
  colony formation percentage with respect to culture without addition of antibodies: 63.3%
[2]; pt No. 9, 100 ng/mL
  colony formation percentage with respect to culture without addition of antibodies: 0.0%
[2]; pt No. 9, 1000 ng/mL
  colony formation percentage with respect to culture without addition of antibodies: 1.0%
[2]; pt No. 11, 10 ng/mL
  colony formation percentage with respect to culture without addition of antibodies: 80.8%
[2]; pt No. 11, 100 ng/mL
  colony formation percentage with respect to culture without addition of antibodies: 0.0%
[2]; pt No. 11, 1000 ng/mL
  colony formation percentage with respect to culture without addition of antibodies: 0.0%
[2]; pt No. 13, 10 ng/mL
  colony formation percentage with respect to culture without addition of antibodies: 35.2%
[2]; pt No. 13, 100 ng/mL
  colony formation percentage with respect to culture without addition of antibodies: 23.9%
[2]; pt No. 13, 1000 ng/mL
  colony formation percentage with respect to culture without addition of antibodies: 19.7%
[2]; pt No. 14, 10 ng/mL
  colony formation percentage with respect to culture without addition of antibodies: 68.9%
[2]; pt No. 14, 100 ng/mL
  colony formation percentage with respect to culture without addition of antibodies: 0.0%
[2]; pt No. 14, 1000 ng/mL
  colony formation percentage with respect to culture without addition of antibodies: 0.0%
[2]; pt No. 15, 10 ng/mL
  colony formation percentage with respect to culture without addition of antibodies: 6.7%
[2]; pt No. 15, 100 ng/mL
  colony formation percentage with respect to culture without addition of antibodies: 0.0%
[2]; pt No. 15, 1000 ng/mL
  colony formation percentage with respect to culture without addition of antibodies: 3.3%
[2]; pt No. 18, 10 ng/mL
  colony formation percentage with respect to culture without addition of antibodies: 47.6%
[2]; pt No. 18, 100 ng/mL
  colony formation percentage with respect to culture without addition of antibodies: 0.0%
[2]; pt No. 18, 1000 ng/mL
  colony formation percentage with respect to culture without addition of antibodies: 0.0%
[2]; pt No. 20, 10 ng/mL
  colony formation percentage with respect to culture without addition of antibodies: 143.8%
[2]; pt No. 20, 100 ng/mL
  colony formation percentage with respect to culture without addition of antibodies: 0.0%
[2]; pt No. 20, 1000 ng/mL
  colony formation percentage with respect to culture without addition of antibodies: 0.0%
Mouse TfR
  cross-reactivity with mouse TfR: did not cross-react
Erythroblast cells; 0.15 ng/mL to 10 μg/mL, 96 hours
  growth of erythroblast cells: suppressed the growth
Erythroblast cells; 96 hours culture
  GI50: 0.125 µg/mL
